Source: patent US20260258115A1 (MAPP BIOPHARMACEUTICAL, published 2026)

Experiments:
[1] = biological target: T1, RSV postfusion F (postF), subtype A (respiratory syncytial virus, subtype A, UniProt P03420 26-513); experiment: BLI, IgG
T1 construct: also called F ΔFP; Postfusion subtype A

[2] = biological target: RSV prefusion F (preF), subtype A (respiratory syncytial virus, subtype A, UniProt P03420 26-513); experiment: BLI, IgG
[3] = biological target: RSV prefusion F (preF), subtype B (respiratory syncytial virus, subtype B); experiment: BLI, IgG
[4] = biological target: RSV fusion glycoprotein (RSV F) on RSV-A2 virus (respiratory syncytial virus, UniProt P03420 26-574); experiment: cell-based or functional assay

Binder | binding result [1] | Kd [2] [nM] | Kd [3] [nM] | Neutralization IC50 (RSV subtype A) [4] [µg/mL] | Kd [1] [nM]
ADI-21034 (antibody, V domains shown) VH: QVQLQQSGAEVKKPGESLTISCKGSGYSFGNYWISWVRQMPGKGLEWMGRIDPSDSYVNYSPSFQGNVTMSVDKSSSTAYLQWSSLKASDTAMYYCARLAGYSTLWGQGTLVTVSS VL: EIVLTQSPGTLSLSPGERATLSCRASQSFGSIYLAWYQQKPGQAPRLLIYGTSSRATGIPDRFSGSGSGTDFTLTIRRLEPEDFAVYYCLYYGSSPGATFGPGTKVDIK | no binding | 0.145 | 0.174 | – | –
ADI-21050 (antibody, V domains shown) VH: QVQLVQSGAEVKKPGASVKVSCTASGYTFANNGISWVRQAPGQGLEWMGWISAYNGNTKYAQTVQGRVTLTTDTSTSTAYMELRSLTSDDTAVYYCAREMGVDAAATFDYWGQGTLVTVSS VL: EIVMTQSPLFLSVTLGQPASISCRSSQSLVYSDTNTYLTWFQQRPGQSPRRLIYKVSNRDSGVPDRFSGSGSGTYFTLKISRVEAEDIGVYYCMQAIHWPRTFGQGTKLEIK | no binding | 0.362 | 0.323 | – | –
ADI-21023 (antibody, V domains shown) VH: EVQLVESGGGLVKPGGSLRLSCAASGFRFSSYGMHWVRQAPGRGLEWVSSITAGSSYMDYADSVKGRFSISRDNAKTSLYLQMNSLRAEDTAIYYCARENYDTGRGLNWFDPWGQGTLVTVSS VL: QSVVTQPPSVSGAPGQRVTISCTGSSSNIGAGYDVHWYRQLPGTAPEVLIYGNNNRPSGVPDRFSGSKTGTSASLAITGLLAEDGADYYCQSYDRSQLWVFGGGTQLTVP | no binding | 0.264 | 0.316 | – | –
ADI-21027 (antibody, V domains shown) VH: QVQLQESGPGLVKPSGTLSLTCVVSGGSIRSHNYWTWVRQPPGKGLEWIGEIYHSGNTNYNPSLKSRVTLSIDKSKNVFSLRLNSVTAADTAVYYCVGGGPFAPYYFENWGQGTLVTVSS VL: QSVLTQPPSVSGAPGQRVTISCTGSSSNIGAGYAVHWYHQLPGTAPKLLIYDNNNRPSGVPDRFSGSKSGSSASLAITGLQAEDEADYYCQSYDRSLSGYVFGTGTKLTVL | no binding | 0.296 | 0.34 | – | –
ADI-41353 (antibody, V domains shown) VH: EVQLVESGVEVKKPGESLKISCRGSGYSFHNYWIAWVRQKPGKGLEYMGTIYVDDSDTIYSPSFQGEVTISADKSINTAYLQWNSLKASDTANYYCARQMDFYFDVWGRGTLVTVSS VL: SYELTQPPSVSVSPGQTARITCSGDPLPRESAYWYQQKPGQAPVVVIFNDIERPLGIPERFSGSRSGTTVTLTISGAQAEDEADYYCQSADSRKTFVFGSGTKLTVL | – | – | – | > 25 | –
ADI-21021 (antibody, V domains shown, also called Ab 270) VH: QVQLQQWGAGLLKPSETLSLTCAVHGGSFSGFYWSWIRQSPGKGLEWIAEINDSGNTNHNPSLKSRVTISIDTSKNQFSLNVSSVTAADTAVYYCAKNGGGHHYVGTLRFRSRAFDIWGQGTMVTVSS VL: EIVMTQSPSTLSASVGDRVTITCRASQSIGNRLAWYQQKPGKAPKLLISLASGLETGVPSRFSGSGSGTEFTLTITSLQPDDFATYYCQQYSSYGTFGQGTKLEIK | no binding | 2.55 | 4.5 | – | –
ADI-21030 (antibody, V domains shown) VH: EVQLVESGGGLVKPGGSLRLSCAASGFKFSTYYMSWIRQAPGKGLEWVSNISGGSSYSNHADSVKGRFTISRDNAKNSLYLEMNSLRAEDTAVYYCAREDLMGVSGLAYFEYWGQGILVTVSS VL: QPVLTQPPSVSGAPGQRVTISCTGRSSNIGAGYDVNWYKQLPGAVPKVLIYGNTNRPSGVPDRFSGSKSGNSASLAITGLQAEDEADYYCQSYDRNLGYVFGTGTKLTVL | no binding | 0.257 | 0.301 | – | –
ADI-21051 (antibody, V domains shown) VH: QVQLVESGPGLVRPSQTLSLTCNVSGDFISRGTYYWSWIRQSAGKGLEWIGRIYTSGITDYSPSLKSRVTISVDTSKNQFFLKLASVTAADTAVYYCARGRGYYDSPWGQGTLVTVSS VL: ETTLTQSPATLSLSPGERATLSCRASESVSTFLGWYQQKPGQAPRLLIYDASNRASGVPARFSGSGSGTDFTLTISSLEPEDFAVYYCQLRNKWLTFGPGTKVDIK | no binding | 0.292 | 0.335 | – | –
ADI-41351 (antibody, V domains shown) VH: QVQLVQSGGGLVQPGGSLRLSCSASGFTFSSKSMHWVRQAPGKGLEYVSAIRSDGVSTYYGDSVKGRFTVSRDNAKNTVYLRMSSLRREDTAVYYCVKGPYGDFQYNWFDTWGQGTLVTVSS VL: not shown | – | – | – | 0.149 | –
ADI-21025 (antibody, V domains shown) VH: EVQLVESGGGLVRPGGSLRLSCEASGLKLSGYSMNWVRQAPGKGLEWVSSISASSSYIHYADSLKGRFTISRDNAKNSLYLQMNSLRAEDTAVYYCVASWLTPGWFDPWGQGTLVTVSS VL: QPVLTQPPSVSGAPGQTVTISCTGSSSNIGAGYDVHWYQQLPGTAPKLLIYGNTNRPSGVPDRFSGSKSGTSASLAVTGLQAEDEGDYYCQSYDSSLSGSAFGGGTKLTVL | no binding | 0.242 | 0.295 | – | –
ADI-21017 (antibody, V domains shown) VH: QVQLVESGTEVKKPGASVKVSCKASGYTFTNYGITWVRQAPGQGLEWMGCISGYNGNTNYAQNLQGRVTMTTDTSTNTAYMELRSLISDDTAVYYCARDTGLTAAALLDYWGQGTLVTVSS VL: DIVLTQSPLSLPVTLGQPASISCRSSQSLVYSDGNTYLSWFQQRPGQSPRRLIYKVSNRDSGVPDRFGGSGSGTYFTLKISRVEAEDVGIYYCMQAIHWPLTFGGGTKVEIK | no binding | 0.305 | 1.56 | – | –
ADI-21033 (antibody, V domains shown) VH: QVQLVQSGAEVRKPGDSLKISCKFSENIFTTYYWTGWVRQMPGRGLEWMGIIFPGDSDTRYSPSFQGHVTISVDKSIATAFLQWSSLKASDSAMYYCARAKYEGSFDMWGQGTMVTVSS VL: DIQVTQSPSSLSASVGDRVSITCQASQDIRNRLNWYQQKPGKAPKLLIYDASILETGVPSRFSGSGSGTDFTFSISSLQPEDFATYYCQQYDSFSLFTFGPGTKVEIK | no binding | 0.193 | 1.4 | – | –
ADI-21045 (antibody, V domains shown) VH: EVQLVESGGGLVKPGGSLRLSCLASGFKFRSYSMNWVRQAPGTGLVWVASISASSSFIFYADSLKGRFTISRDNDKNSLYLQMNSLTVEDTAVYYCVRDMSGISSGGKTFDYWGQGTLVTVSS VL: QSVLTQPPSVSGAPGQRVTISCTGSSSNLGAGYDVQWYQQLPGTAPKLLIYGNNNRPSGVPDRFSGSKSGTSASLAITGLRAEDEADYYCQSYDTSPVFGGGTKLTVL | no binding | 0.456 | 0.596 | – | –
ADI-21052 (antibody, V domains shown, also called Ab 300) VH: QVQLVQSGAEVKKPGASVKVSCKASGYTFTSYGISWVRQAPGQGLEWMGWISAYNGNTNYAQNLQGRVTMTTDTSTSTAYMELRSLRSDDTAMYYCARDAFSRVGYWYFDLWGRGTLVTVSS VL: SYELTQPPSVSVAPGQAARITCGGNNIGSKTVHWYQQKPSQAPVLVVYDDSDRPSGIPERFSGSNSGNTATLTISRVEAGDEADYYCQVWDSSGDHPVFGGGTKLTVL | – | 0.126 | 0.11 | – | 18.4
ADI-21029 (antibody, V domains shown) VH: QVQLVQSGAEVRKPGESLKISCKASGYSFTNYWIGWVRQMPGKGLEWMGIVYPADSHPVYSPSFQGQVTFSTDKSINTAYLQWSSLKASDTAMYFCARRDGGTDYLSDAFDIWGQGTMVTVSS VL: DIVMTQSPSSLSASVGDRVTITCRTSQSIRRYLNWYQQKPGKAPKLLIYAASSLQSGVPSRFSGSGSGTDFTLTISSLQPEDFATYYCQQSYSTPNTFGQGTKVEIK | no binding | 3.77 | 8.38 | – | –
ADI-21059 (antibody, V domains shown) VH: QVQLVQSGAEVKRPGDSLKISCKGSGYSFTTSWIGWVRQVPGKGLEWMGIIYPGDSNTVYGPSLQGQVTISADKSTNTAYLQWSSLKASDTAMYYCARRDGGTDYLSDAFDIWGQGTFVTVSS VL: DIQMTQSPSSLSASVGDRVTITCRTSQNIVIYLNWYQQKPGKAPKLLIFAASSLPSGVPSRFSGSGSGTDFTLTISSLQPEDVATYYCQQSYNTPGTFGQGTKVDIK | no binding | 3.05 | 9.43 | – | –
ADI-21063 (antibody, V domains shown) VH: EVQLVESGGGLVQPGGSLRLSCSASGFTFRTYVMQWVRQAPGKGLEYVSAISSDGGSTDYADSVKGRFTVSRDNSKNTLYLQMSSLRAEDTAVYYCVKRGEGGNDYLYYYMDVWGKGTTVTVSS VL: DIQVTQSPSSLSASVGDRVTITCRASQSITNYLNWYQQKPGKAPKVLIYAASSLQSGVPSRFSGSGSGTDFTLTISSLQPEDFATYYCQQSYLRPPTFGGGTKVEIK | no binding | 0.834 | 0.777 | – | –
ADI-21044 (antibody, V domains shown) VH: QVQLVQSGAELKKPGESLKISCKTSGYTFANYWIGWVRQMPGKGLEWMGIIYPGDSDTRYSPSFQGQVTFSADKSINSAYLQWHSLKASDSAIYYCARRFSPDYSDGAAPPTLSDAFDVWGQGTTVTVSS VL: DIVMTQSPSSLSASVGDRVTITCRASQNINIYLNWYQQKPGKAPKLLIYAASTLQSGVPSRFSGSGSATDFTLTISSLQPEDFATYYCQQSYRTPNDFGRGTKVDIK | no binding | 4.51 | 5.85 | – | –
ADI-21038 (antibody, V domains shown) VH: QVQLVQSGAEVKKPGESLKISCQGFGFSFTSYWIGWVRQTPGKGLEWMGTIYPGDSETRKSPSIQGQVTFSADRSISTAYLQWSGLTASDTAVYYCARLKGGWGTTMAGIRDYFYYGLDVWGQGTTVTVSS VL: EIVLTQSPGTLSLSPGERATLSCRASQSVSSSYLAWYQQKPGQAPRLLIYGASSRATGIPDRFTGSGSGTDFTLTISRLEPEDFAVYYCQQYATSLGGFTFGPGTKVDIK | – | 2.93 | 16 | – | 1.45
